The supplement of paper PMC9170038

Tested on: MS2 coat protein
Assay: apparent KD of MS2 coat protein; designed switch direction (-1 OFF switch, 1 ON switch): 1; higher = weaker reporter binding
Outline: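 SNAP-549-labelled MS2 coat protein was titrated, doubling from 0.7 or 1.5 nM to 3 µM, over designed RNA switches transcribed on Illumina chips by stalled E. coli RNA polymerase. Runs were done without input, with 200 uM small-molecule ligand, or with an oligonucleotide input. Apparent KD is the per-design median over clusters of curve-fitted normalised fluorescence.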

[1] = input ligand: microRNA oligo, concentration not stated
[2] = Eterna round: R95, input ligand: FMN 200 uM
[3] = Eterna round: R95, input ligand: microRNA oligo, concentration not stated
[4] = Eterna round: R95, input ligand: none

Sequence | apparent KD of MS2 coat protein (input ligand: FMN 200 uM) | apparent KD of MS2 coat protein [1] | apparent KD of MS2 coat protein (input ligand: none) | apparent KD of MS2 coat protein [2] | apparent KD of MS2 coat protein [3] | apparent KD of MS2 coat protein [4]
CUCACAUGGGUAGGAUAUCUAGGAUAUGGGAAAGACUAAGUCUGUAGGUCACCUAACCCAGAUGGAGAGAAGGACCCAACACUC [pwkr ssNG2 2FMN + F9.37] (Eterna round: R96, puzzle: Same State NG 2) | 32.4 nM | 7.81 nM | 9.82 nM |  |  | 
AGUCCAGCCAGAGCUGGACAAAAGCAUGUACAUGAGGAUCACCCAUGUUCAUGUACAAGCUUUUUGCUCGUCUUAAU [Mat - hsa-mir-208a - Mod of JL - 59] (Eterna round: R96, puzzle: Sensor for hsa-mir-208a) | 620 nM | 15.3 nM | 583 nM |  |  | 
AUUAUUUAUGCAGGAUAUGAUUAACAUGAGGAUCACCCAUGUGGUGUUGUGAGUAAGGAGAGUGAUCAGAAGGGCAUUUUUUUC [JMF's solution 59] (Eterna round: R96, puzzle: Same State NG 2) | 381 nM | 214 nM | 397 nM |  |  | 
AUAAUUAAUGCAGGAUAUGAUUAACAUGAGGAUCACCCAUGUGGUGUUGUGAGUAAGGAGAGUGAUCAGAAGGGCAUUUUUUUU [JMF's solution 33] (Eterna round: R96, puzzle: Same State NG 2) | 666 nM | 298 nM | 343 nM |  |  | 
GUCCAAAACACAGGAUAUCCCAGUCAUGAUCUGGGAGAAGGGUGGCCACAUGAGGAUCACCCAUGUGAAGUGCGAGAGGCACGA [Inerraat] (Eterna round: R96, puzzle: Same State NG 1) | 258 nM | 827 nM | 629 nM |  |  | 
AUAAAACAUGAGGAUCACCCAUGUCAACAAAGUCGAGGAUAUGUGCAAAUAAAAUAAGAACCAGAAGGCGAAUAAU [salish99_ss1_r3_049] (puzzle: Same State 1) |  |  |  | 16.2 nM | 22.3 nM | 37.9 nM
AGAGAACAUGAGGAUCACCCAUGUAGGAUGGGCAUAGGAUAUAGAAGGAUGAGGGAGAAACUAGAAGGAUGAUGGA [JR_SS1_Sub077] (puzzle: Same State 1) |  |  |  | 124 nM | 152 nM | 278 nM
UUCUCAUUUACAUGAGGAUCACCCAUGUUUUUUUGUCAGAGAUAGGAUAUAGUUCUCUCGUUUUUCUAGAAGGAUCUUUUUAUU [JR_SSNG3_Sub087] (Eterna round: R96, puzzle: Same State NG 3) | 79.7 nM | 53.2 nM | 71.7 nM |  |  | 
GCAGGACAUGAGGAUCACCCAUGUUCAAAAUAUUGAGGAUAUGGAUACGGUAUAUCCGAACCAGAAGGCAACCUGC [SS1 Teenbexe 22] (puzzle: Same State 1) |  |  |  |  | 16.6 nM | 
GUAGCAUACCGAGGAUAUUCAUUACAUGAGGAUCACCCAUGUUUUAUAGGUCGAUUACGACCUUGGGAGAAGGCGGAAUGCUAC [Xeonanis - 20 Mod30] (Eterna round: R96, puzzle: Same State NG 2) | 10.5 nM | 9.36 nM | 15.6 nM |  |  | 
UUAAUCUGAACAUGAGGAUCACCCAUGUAUCUUACCUUAGGACAGGAUAUAGAUGUUAAGAAUUACUAGAAGGGUCAGUAUAUU [JR_SSNG3_Sub012] (Eterna round: R96, puzzle: Same State NG 3) |  | 33.1 nM |  |  |  | 
GAGAGAGGGUGAGGAUAUGGAGUAAUAAUGAUACCAGAAGGCACAGACAUGAGGAUCACCCAUGUGGGAAUAAUCCAGAGAGAG [Parity 7 - Jieux - Same State NG 1] (Eterna round: R96, puzzle: Same State NG 1) | 506 nM | 177 nM | 264 nM |  |  | 
UCUGCUGCCCAAGGAUAUCAGCGUGGUAUCCACAUGAGGAUCACCCAUGUAGGUCAGCACUACCCUGAGAAGGUGGGAAAAUAA [Eternabot solution 2] (Eterna round: R96, puzzle: Same State NG 2) | 14.4 nM | 10.6 nM | 15.1 nM |  |  | 
AACAAUCUAUCUGAGGAUAUCAUGAAAUAAACAUGAGGAUCACCCAUGUGCAGGAAAACUGCAUAUGAGAAGGCAGAUAGUUUGA [salish99_ss2_r3_056] (puzzle: Same State 2) |  |  |  | 47.5 nM | 716 nM | 855 nM
AGCUAAAACGAAGGAUAUACUGACAUGAGGAUCACCCAUGUCUACAUGAUUUAUUGUGAUCACAUGUAGAAGGUCGUACUAACA [SameState NG2 #22] (Eterna round: R96, puzzle: Same State NG 2) |  | 58.5 nM |  |  |  | 
GGCAGUCCGACACAGGAUAUGGGUAACGAAACAUGAGGAUCACCCAUGUGGAAACAUCGGGUUGCCUAGAAGGGUGGAAAGAUUG [Xeti] (Eterna round: R96, puzzle: Same State 2) | 32.4 nM | 71.6 nM | 124 nM |  |  | 
AGUAGGGCGUCAUAGGAUAUCCGGAAGAGUACAUGAGGAUCACCCAUGUCACUCCGCCAUGCAGAGGAGAAGGGUGGUGUUGUAC [Biedzage] (puzzle: Same State 2) |  |  |  | 77.6 nM | 36.6 nM | 41 nM
AGUCCAGCCUGAGCUGGACAAAAGCAUGUACAUGAGGAUCACCCAUGUUCAUGUACUAGCUUUUUGCUCGUCUUGCC [salish99_208a_r3_108x] (puzzle: Sensor for hsa-mir-208a) |  |  |  | 157 nM | 14.8 nM | 163 nM
GUGGUCAGACAUGAGGAUCACCCAUGUGGAAUAAAUAACGGUGAGGAUAUGCAAUAUAGGAUAUAGUAGAAGGCAUGAUUGGUG (Eterna round: R96, puzzle: Same State NG 3) | 164 nM | 104 nM | 132 nM |  |  | 
AAAAGAAACACAGGAUAUACCGCGCUUAACGCGGUAGAAGGGUGGGACAUGAGGAUCACCCAUGUGGCCUGAGCGCCAGGCCGC [Uszadi] (Eterna round: R96, puzzle: Same State NG 1) | 428 nM | 14.1 nM | 299 nM |  |  | 
UGAGGUGUAGCAGGAUAUGCCGUCAGUCACCCGGCAGAAGGGCUGAAAGCAUGCUCGCACAUGAGGAUCACCCAUGUCACAGUG [Eternabot solution 17] (Eterna round: R96, puzzle: Same State NG 1) | 48.9 nM | 37.7 nM | 44 nM |  |  | 
UUAGAAUUGCAAGGAUAUCUAAUUUAGAUAGUAAGAGAAGGUGCUUGAUAGUUACAUGAGGAUCACCCAUGUUUUUGGGUUUAU [JR_SSNG1_Sub058] (Eterna round: R96, puzzle: Same State NG 1) |  | 416 nM |  |  |  | 
ACAUGAGACAUAGGAUAUGUUGUACCUACAUGUGACAUGAGGAUCACCCAUGUGGUAAGUAUGAGACAGAAGGAUGAGAUAUGU [Equivalence 30 - Jieux - Same State NG 2] (Eterna round: R96, puzzle: Same State NG 2) | 27.5 nM | 43.4 nM | 73 nM |  |  | 
